According to patent US20050074865A1:

Biological target: recombinant human TNFα (RDI) (human) (UniProt P01375)
Test: cell-based or functional assay

Sequence of recombinant human TNFα (RDI) (human) (P01375 77-233 limits assumed): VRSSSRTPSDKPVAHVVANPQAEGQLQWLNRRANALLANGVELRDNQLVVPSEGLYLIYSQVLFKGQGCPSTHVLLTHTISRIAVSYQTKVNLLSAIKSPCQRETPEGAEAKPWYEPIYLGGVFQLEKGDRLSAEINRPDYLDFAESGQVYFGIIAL
Sequence of TRYPSIN (commercial protease of the screen) (enzyme) (P00760 24-246): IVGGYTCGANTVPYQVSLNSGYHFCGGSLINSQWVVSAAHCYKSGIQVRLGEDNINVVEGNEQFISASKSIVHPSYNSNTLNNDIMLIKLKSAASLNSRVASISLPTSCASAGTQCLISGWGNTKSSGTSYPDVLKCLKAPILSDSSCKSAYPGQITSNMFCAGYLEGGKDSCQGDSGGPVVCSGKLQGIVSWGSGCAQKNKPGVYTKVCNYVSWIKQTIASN
Sequence of MMP12 (enzyme) (P39900 106-470): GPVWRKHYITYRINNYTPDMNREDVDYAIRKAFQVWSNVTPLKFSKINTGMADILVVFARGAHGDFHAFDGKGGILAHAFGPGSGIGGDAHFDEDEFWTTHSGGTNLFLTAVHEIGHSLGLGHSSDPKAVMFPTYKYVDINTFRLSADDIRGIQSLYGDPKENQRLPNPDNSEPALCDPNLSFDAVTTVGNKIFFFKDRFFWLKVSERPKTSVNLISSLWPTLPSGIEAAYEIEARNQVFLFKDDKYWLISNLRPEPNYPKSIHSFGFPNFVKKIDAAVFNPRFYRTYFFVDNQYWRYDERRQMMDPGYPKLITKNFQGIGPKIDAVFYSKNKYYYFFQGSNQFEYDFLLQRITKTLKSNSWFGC

Substance	log reduction in TNFα activity at the 50% survival level, L929 cytotoxicity bioassay after overnight digestion
CHYMOTRYPSIN (enzyme)	2.74 log
ELASTASE (enzyme)	1.45 log
MMP12 (enzyme)	0.65 log
MT1-MMP (enzyme)	0.86 log
TRYPSIN (commercial protease of the screen) (enzyme)	2.3 log
Tryptase (enzyme)	0.62 log
